Consider ten molecules from article PMC9177699, “Dynamic interplay between the periplasmic chaperone SurA and the BAM complex in outer membrane protein folding” (Communications Biology, 2022).

Assay [1] has as its target T1, β-barrel assembly machinery (BAM) complex, BamABCDE (E. coli, UniProt P0A940 21-810; P77774 20-392; P0A903 25-344; P0AC02 20-245; P0A937 20-113). The assay is described as follows: MST; BAM in DDM micelles titrated (1.6 nM–52 μM) against 400 nM Alexa Fluor 488-labelled Cys-SurA variant; 0.02% (v/v) DDM, 150 mM NaCl, 20 mM Tris–HCl, pH 8, 25 °C; 1:1 quadratic binding model. To be noted: both partners purified.

Another assay addresses BAM complex (BamABCDE) (E. coli, UniProt P0A940 21-810; P77774 20-392; P0A903 25-344; P0AC02 20-245; P0A937 20-113). The assay is described as follows: MST; 400 nM Alexa Fluor 488-labelled SurA variant, BAM complex titrated 25 µM-1 nM in proteoliposomes of E. coli polar lipid extract, 150 mM NaCl, 20 mM Tris-HCl, pH 8.0, 25 °C; BAM concentration taken as 50 % of the total for fitting; 1:1 quadratic binding model. Conditions: both partners purified.

Assay [2] concerns the target T1, β-barrel assembly machinery (BAM) …. The assay is described as follows: cell-based or functional assay.
The target is the same in assay [3]. The assay is described as follows: MST; BAM reconstituted in proteoliposomes of E. coli polar lipid extract titrated (25 µM–1 nM) against 400 nM Alexa Fluor 488-labelled SurA variant; TBS pH 8.0, 25 °C; 1:1 quadratic binding model. To be noted: both partners purified.

B1: Alexa Fluor 488-labelled Cys-SurA-core (domain or fragment)
chain: CAPQVVDKVAAVVNNGVVLESDVDGLMQSVKLNAAQARQQLPDDATLRHQIMERLIMDQIILQMGQKMGVKISDEQLDQAIANIAKQNNMTLDQMRSRLAYDGLNYNTYRNQIRKEMIISEVRNNEVRRRITILPQEVESLAQQVGNQNDASDAAQKDRAYRMLMNRKFSEEAASWMQEQRASAYVKILSN
modifications: Alexa Fluor 488 on the added N-terminal cysteine (maleimide)
notes: cysteine residue added immediately following the TEV cleavage site; numbers are the gene numbering (including the signal peptide); A G of the TEV site probably precedes the added cysteine after cleavage (surmised); not shown: His6, N-terminal, cleaved
Broadly, the Kd is the constant that tells how readily two partners part at equilibrium. Low values mean higher affinity, high ones lower affinity. The molecule B1 gave a Kd in assay [1] of 1300 ± 300 nM.

B2: Alexa Fluor 488-labelled Cys-SurA-∆P1 (domain or fragment)
chain: GCAPQVVDKVAAVVNNGVVLESDVDGLMQSVKLNAAQARQQLPDDATLRHQIMERLIMDQIILQMGQKMGVKISDEQLDQAIANIAKQNNMTLDQMRSRLAYDGLNYNTYRNQIRKEMIISEVRNNEVRRRITILPQEVESLAQQVGNQNDASSVTEVHARHILLKPSPIMTDEQARVKLEQIAADIKSGKTTFAAAAKEFSQDPGSANQGGDLGWATPDIFDPAFRDALTRLNKGQMSAPVHSSFGWHLIELLDTRNVDKTDAAQKDRAYRMLMNRKFSEEAASWMQEQRASAYVKILSN
modifications: Alexa Fluor 488 (C5 maleimide) on the added N-terminal cysteine
notes: glycine left after TEV cleavage (ENLYFQG) and the cysteine added immediately following the TEV cleavage site; the order G-C is worked out from the text; gene numbering including the signal peptide; not shown: His6, N-terminal, cleaved
Molecule B2 had a Kd with BAM complex (BamABCDE) of 600 nM.

B3: Alexa Fluor 488-labelled Cys-SurA-core (domain or fragment)
chain: GCAPQVVDKVAAVVNNGVVLESDVDGLMQSVKLNAAQARQQLPDDATLRHQIMERLIMDQIILQMGQKMGVKISDEQLDQAIANIAKQNNMTLDQMRSRLAYDGLNYNTYRNQIRKEMIISEVRNNEVRRRITILPQEVESLAQQVGNQNDASDAAQKDRAYRMLMNRKFSEEAASWMQEQRASAYVKILSN
modifications: Alexa Fluor 488 (C5 maleimide) on the added N-terminal cysteine
notes: as for B2
B3: binding with BAM complex (BamABCDE) was characterised by a dissociation constant (Kd) of 700 nM.

B4: SurA-∆P2 (SurA 21-428 without residues 281-389, His-tag cleaved) (domain or fragment)
chain: APQVVDKVAAVVNNGVVLESDVDGLMQSVKLNAAQARQQLPDDATLRHQIMERLIMDQIILQMGQKMGVKISDEQLDQAIANIAKQNNMTLDQMRSRLAYDGLNYNTYRNQIRKEMIISEVRNNEVRRRITILPQEVESLAQQVGNQNDASTELNLSHILIPLPENPTSDQVNEAESQARAIVDQARNGADFGKLAIAHSADQQALNGGQMGWGRIQELPGIFAQALSTAKKGDIVGPIRSGVGFHILKVNDLRGESKNIDAAQKDRAYRMLMNRKFSEEAASWMQEQRASAYVKILSN
On to B4, for which the “rate of BAM-catalysed folding of tOmpA into proteoliposomes (cold SDS–PAGE), with SurA-∆P2 against SurA-WT” value in assay [2] is roughly 3 fold.

B5: SurA-WT (wild-type SurA, residues 21-428, His-tag cleaved) (natural protein)
chain: APQVVDKVAAVVNNGVVLESDVDGLMQSVKLNAAQARQQLPDDATLRHQIMERLIMDQIILQMGQKMGVKISDEQLDQAIANIAKQNNMTLDQMRSRLAYDGLNYNTYRNQIRKEMIISEVRNNEVRRRITILPQEVESLAQQVGNQNDASTELNLSHILIPLPENPTSDQVNEAESQARAIVDQARNGADFGKLAIAHSADQQALNGGQMGWGRIQELPGIFAQALSTAKKGDIVGPIRSGVGFHILKVNDLRGESKNISVTEVHARHILLKPSPIMTDEQARVKLEQIAADIKSGKTTFAAAAKEFSQDPGSANQGGDLGWATPDIFDPAFRDALTRLNKGQMSAPVHSSFGWHLIELLDTRNVDKTDAAQKDRAYRMLMNRKFSEEAASWMQEQRASAYVKILSN
For B5, in assay [2], the “rate of BAM-mediated folding of tOmpA into proteoliposomes (cold SDS–PAGE), without SurA-WT against with 10 μM SurA-WT” value is roughly 6 fold.

B6: Alexa Fluor 488-labelled Cys-SurA-WT (natural protein)
chain: CAPQVVDKVAAVVNNGVVLESDVDGLMQSVKLNAAQARQQLPDDATLRHQIMERLIMDQIILQMGQKMGVKISDEQLDQAIANIAKQNNMTLDQMRSRLAYDGLNYNTYRNQIRKEMIISEVRNNEVRRRITILPQEVESLAQQVGNQNDASTELNLSHILIPLPENPTSDQVNEAESQARAIVDQARNGADFGKLAIAHSADQQALNGGQMGWGRIQELPGIFAQALSTAKKGDIVGPIRSGVGFHILKVNDLRGESKNISVTEVHARHILLKPSPIMTDEQARVKLEQIAADIKSGKTTFAAAAKEFSQDPGSANQGGDLGWATPDIFDPAFRDALTRLNKGQMSAPVHSSFGWHLIELLDTRNVDKTDAAQKDRAYRMLMNRKFSEEAASWMQEQRASAYVKILSN
modifications: Alexa Fluor 488 on the added N-terminal cysteine (maleimide)
notes: cysteine residue added immediately following the TEV cleavage site; numbers are the gene numbering (including the signal peptide); A G of the TEV site probably precedes the added cysteine after cleavage (surmised); also called Alexa Fluor 488-labelled SurA; not shown: His6, N-terminal, cleaved
In turn, B6 registered a Kd in assay [1] of 2600 ± 200 nM.

B7: Alexa Fluor 488-labelled Cys-SurA-WT (natural protein)
chain: GCAPQVVDKVAAVVNNGVVLESDVDGLMQSVKLNAAQARQQLPDDATLRHQIMERLIMDQIILQMGQKMGVKISDEQLDQAIANIAKQNNMTLDQMRSRLAYDGLNYNTYRNQIRKEMIISEVRNNEVRRRITILPQEVESLAQQVGNQNDASTELNLSHILIPLPENPTSDQVNEAESQARAIVDQARNGADFGKLAIAHSADQQALNGGQMGWGRIQELPGIFAQALSTAKKGDIVGPIRSGVGFHILKVNDLRGESKNISVTEVHARHILLKPSPIMTDEQARVKLEQIAADIKSGKTTFAAAAKEFSQDPGSANQGGDLGWATPDIFDPAFRDALTRLNKGQMSAPVHSSFGWHLIELLDTRNVDKTDAAQKDRAYRMLMNRKFSEEAASWMQEQRASAYVKILSN
modifications: Alexa Fluor 488 (C5 maleimide) on the added N-terminal cysteine
notes: as for B2
B7 gave a dissociation constant (Kd) with BAM complex (BamABCDE) of 600 nM.

B8: Alexa Fluor 488-labelled Cys-SurA-∆P2 (domain or fragment)
chain: CAPQVVDKVAAVVNNGVVLESDVDGLMQSVKLNAAQARQQLPDDATLRHQIMERLIMDQIILQMGQKMGVKISDEQLDQAIANIAKQNNMTLDQMRSRLAYDGLNYNTYRNQIRKEMIISEVRNNEVRRRITILPQEVESLAQQVGNQNDASTELNLSHILIPLPENPTSDQVNEAESQARAIVDQARNGADFGKLAIAHSADQQALNGGQMGWGRIQELPGIFAQALSTAKKGDIVGPIRSGVGFHILKVNDLRGESKNIDAAQKDRAYRMLMNRKFSEEAASWMQEQRASAYVKILSN
modifications: Alexa Fluor 488 on the added N-terminal cysteine (maleimide)
notes: as for B1
In the case of B8, the binding result in assay [3] is given as “binds”.

B9: Alexa Fluor 488-labelled Cys-SurA-∆P2 (domain or fragment)
chain: GCAPQVVDKVAAVVNNGVVLESDVDGLMQSVKLNAAQARQQLPDDATLRHQIMERLIMDQIILQMGQKMGVKISDEQLDQAIANIAKQNNMTLDQMRSRLAYDGLNYNTYRNQIRKEMIISEVRNNEVRRRITILPQEVESLAQQVGNQNDASTELNLSHILIPLPENPTSDQVNEAESQARAIVDQARNGADFGKLAIAHSADQQALNGGQMGWGRIQELPGIFAQALSTAKKGDIVGPIRSGVGFHILKVNDLRGESKNIDAAQKDRAYRMLMNRKFSEEAASWMQEQRASAYVKILSN
modifications: Alexa Fluor 488 (C5 maleimide) on the added N-terminal cysteine
notes: as for B2
Turning to B9, the Kd in the assay with BAM complex (BamABCDE) is 1200 nM.

B10: Alexa Fluor 488-labelled Cys-SurA-∆P1 (domain or fragment)
chain: CAPQVVDKVAAVVNNGVVLESDVDGLMQSVKLNAAQARQQLPDDATLRHQIMERLIMDQIILQMGQKMGVKISDEQLDQAIANIAKQNNMTLDQMRSRLAYDGLNYNTYRNQIRKEMIISEVRNNEVRRRITILPQEVESLAQQVGNQNDASSVTEVHARHILLKPSPIMTDEQARVKLEQIAADIKSGKTTFAAAAKEFSQDPGSANQGGDLGWATPDIFDPAFRDALTRLNKGQMSAPVHSSFGWHLIELLDTRNVDKTDAAQKDRAYRMLMNRKFSEEAASWMQEQRASAYVKILSN
modifications: Alexa Fluor 488 on the added N-terminal cysteine (maleimide)
notes: cysteine residue added immediately following the TEV cleavage site; numbers are the gene numbering (including the signal peptide); A G of the TEV site probably precedes the added cysteine after cleavage (surmised); also called SurA-ΔP1; not shown: His6, N-terminal, cleaved
As for B10, in assay [3], the binding result is listed as “binds”.
